Results from patent US20140017242A1, “ANTI-BRADYKININ B2 RECEPTOR (BKB2R) MONOCLONAL ANTIBODY” (Diamedica, Inc., priority 2010, published 2014).
Several values for one entry are separate records, joined by “and”; a condition that tells them apart may be missing. Equal values may be shown once.

What was measured:
[1] = test system: influenza strain A/Brisbane/07 (H1N1); assay type: cell-based, influenza virus
[2] = test system: Sprague Dawley Rats; assay: Hyperinsulinemic-euglycemic clamp in Sprague Dawley rats; assay type: in vivo, rat
Description: The hyperinsulinemic euglycemic clamp has been considered to as the standard in vivo technique for measuring insulin sensitivity effects of type 2 diabetes drugs. In this procedure, insulin is administered to a test animal to raise the insulin concentration, while glucose is infused to maintain euglycemia. The glucose infusion rate (GIR) needed to maintain euglycemia is a reflection of insulin action or improved insulin sensitivity. The bradykinin receptor agonist (anti-BKB2R) monoclonal antibody clone 5F12G1 was tested in a euglycemic clamp study to measure its ability to improve insulin sensitivity.
Healthy young male Sprague Dawley Rats weighing 275-300 g were used for the study (Harlan Laboratory, Indianapolis, USA). The rats were maintained in a controlled environment at a temperature of 70-72° F., humidity 30-70%, with a photo cycle of 12 hours of light and 12 hours of dark. They were provided with TEKLAD™ 2018-Global 18% diet and drinking water ad libitum. After seven days of acclimatization, rats were grouped in groups of four.
Animals were anesthetized with an intraperitoneal injection of ketamine-plus-xylazine cocktail and the right jugular vein and left carotid artery were catheterized externally through an incision in the skin flap. The catheterized animals were allowed to recover for five days. After five days of recovery, animals were fasted for six hours and a 120-minute hyperinsulimic-euglycemic clamp was applied with continuous infusion of human insulin (Humulin, Eli Lilly, Indianapolis, Ind.) at a constant rate of 4mU/kg/minute. […] Both insulin and glucose were infused through catheterized right jugular vein and blood glucose levels were monitored from the catheterized carotid artery. Arterial blood glucose levels and plasma insulin levels were measured prior to infusion at t=−120, −90, −30, −15 and 0 minutes and then at every 10 minutes for 120 minutes (t=120), using a Glucose meter (Accu-Chek™ Roche Diagnostics, Indianapolis, Ind.) and a rat insulin ELISA kit. […]

[3] = test system: ZDF fa/fa rats; assay: 21-day ZDF fa/fa study: glycated hemoglobin HbA1c; assay type: in vivo, rat; settings: day 21
Description: Animals. Male ZDF fa/fa rats were obtained from CRL (Kingston, N.Y.). Upon arrival, rats were seven weeks of age. The rats were housed individually per cage in a room with a photo cycle of 12 hours of light and 12 hours of dark and an ambient temperature of 70-72° F. and fed on regular rodent diet and water ad libitum. At the age of eleven weeks, rats were divided into six groups (Table 5) of eight rats per group based on fasting blood glucose levels. A sub-group of four rats per group was maintained in parallel to the main groups and was dosed similarly for twenty-one days for a hyperinsulinemic-euglycemic clamp study. […]
An oral glucose tolerance test (OGTT) was performed on Day 0, 7, 14 and 21 for each group of the study. Plasma samples were collected at each time point during OGTT to also measure insulin levels. Body weight, food and water intake were measured twice a week. Blood pressure and heart rates were monitored on Day 0, 7, 14 and 21 using a non-invasive tail cuff method (with five readings per rat taken and then averaged). Fasting serum samples were collected on Day 0, 7, 14 and 21 before OGTT for determination of triglyceride and total cholesterol level. Urine samples were collected on Day 7 and 14 for the determination of glycosuria. Glycated (Glycosylated) hemoglobin (HbA1c) was measured at the end of the study. Assay kits for these studies were as presented in Table 6, and were used according to the suppliers' instructions.
The mean change in fasting blood glucose (mg/dL), serum cholesterol (mg/dL) and systolic blood pressure (mm Hg) from baseline ([…]) and negative control (MG2b-57, 0.2 mg/kg) groups using an analysis of covariance to adjust for baseline levels. […] A significance level of a=0.05 was used for all tests, and all analyses were conducted using SAS statistical software (vs. 9.2, Cary, N.C., U.S.A.).

B1: 5F12G1: murine monoclonal anti-BKB2R antibody (IgG2b,κ), VH comprising SEQ ID NO:1, VL comprising SEQ ID NO:2 (antibody, listed as Mus musculus, V domains shown)
VH: EVKLEESGGGLVQPGGSMKLSCVVSGFTFSDYWMSWVRHSPEMGLEWVAEIRLKSDNYATHYAESVKGRFTISRDDSKSRLYLQINSLRGEDTGIYYCTRDYYAMEYWGQGTSVTVSS
VL: DVVMTQTPLSLPVSLGDQASISCRSSQTIVHSNGKTYLEWYLQKPGQSPKLLIYKVSNRFSGVPDRFSGSGSGTEFTLKISRVETEDLGVYYCFQASHVPYTFGGGTKLEIK
[1]
  +/− Result FAM: Positive
[1]; A549 cells, qRT-PCR, FIGS. 5 to 8
  dose dependence of the reduction of viral titer / viral genomic copies: decreased viral titer in a dose-dependent manner
[1]; highest tested concentration of 100 μg/ml
  reduction in viral titer: 100 fold
[1]; listed as G1
  Ct FAM: 36.21 and 30.38 and 35.93 and 30.08 and 37.95 and 32.97 and 34.96 and 34.02
[2]; 0.5 mg/kg i.m. at t=−30 min, 120-minute clamp
  increase in total glucose infusion rate AUC compared to vehicle: 179%
[2]; 0.5 mg/kg i.m. at t=−30 min, t=60 min
  peak increase of glucose infusion rate compared to vehicle: 291%
[2]; 0.5 mg/kg i.m., individual animals # 1-4
  Calculated Glucose Infusion Rate Area Under the Curve: 4560 mg/kg and 4317 mg/kg and 3243 mg/kg and 2685 mg/kg
[3]; 0.2 mg/kg s.c. every 3 days (high dose)
  percent glycosylated hemoglobin A1c (HbA1c): 6.3+/−0.5%
[3]; 0.2 mg/kg s.c. every 3 days vs MG2b-57 0.2 mg/kg
  difference in percent HbA1c between the high dose and negative control animals: −2.58+/−0.85%
